Source: patent US9109007B2, “MHC-I restricted epitopes containing non-natural amino acid residues” (Purdue Pharma L.P., priority 2010, dated 2015)
Where no end group is shown, it is not given here. [ ]: non-standard residue; d: D form. Gly(cPent) = N[C@H](C(=O)O)C1CCCC1

Biological target: T1, HLA-A2 (Homo sapiens, UniProt P04439, D140Y/D185E/D98H/E176V/E277Q/G131W/G231S/I119V/I121R/I166T/I218V/L300P/N151K/N90K/P208A/P217A/Q86G/Q94H/R138H/R169H)
T1 construct: Soluble Class I/Plate-Based Assays; purchased Beckman Coulter
Test: iTopia plate-based assay: stability (half-life) of peptide/HLA-A2 complexes
Type: binding
Conditions: for stability of complex with HLA-A2 compared with the corresponding native survivin peptide: Survivin peptide derivatives
Procedure: II. Soluble Class I/Plate-Based Assays The plate-based assay, named iTopia™, is a commercial assay (Beckman Coulter). The assay is performed in wells of microtiter plates. At the outset of the assay, MHCI complexes (properly folded MI-IC heavy chain, beta 2 microglobulin and a place-holder peptide), are tethered to streptavidin-coated microplate wells. (Proper formation/folding of the MHC complex may be determined by binding of an anti-HLA-ABC antibody). A buffer designed to unfold and dissociate the complex was added to each test well, allowed to incubate, and the place holder peptide and beta 2 microglobulin were washed away. Escalating concentrations of the test peptide, along with additional beta 2 microglobulin, were added to each well and incubated in a buffer designed to promote refolding of complexes. Plates were incubated overnight at 21° C. Properly folded MHCI complex molecules were detected with a fluorescently labeled antibody selected based on its ability to only bind properly folded MHCI complexes. Binding was reported relative to a standardized positive control peptide. Relative affinities were reported as ED50, and are defined herein as the concentration of peptide required to achieve half maximal binding of the positive control. […] Assessment of Peptide/HLA-A0201 Complex Stability. MHCI complexes were dissociated in each test well using stripping buffer, and the place-holder peptide and beta 2 microglobulin were washed away. 100 uM of the test peptide was added to appropriate wells along with additional beta 2 microglobulin and the anti-HLA ABC antibody, and the plates were incubated overnight at 21° C. Plates were washed, and fresh buffer was added to each well. Plates were shifted to 37° C., and the appropriate wells were read at 0, 0.5, 1, 1.5, 2, 4, 6 and 8 hours.

| Substance | increase in the half life of the HLA-A2 peptide complex compared to the native survivin peptide (Survivin peptide derivative vs native survivin peptide) | stability of complex with HLA-A2 compared with the corresponding native survivin peptide |
| --- | --- | --- |
| K-[cpg]-RRAIEQL (K[Gly(cPent)]RRAIEQL) | greater than 20 fold | more stable complex |
| I-[cpg]-TFKNWPF (I[Gly(cPent)]TFKNWPF) |  | more stable complex |
